Test results reported in patent publication US20260232827A1 (Zymeworks, published 2026).

T1: human sodium-dependent phosphate transporter 2B (NaPi2b) (human, UniProt O95436 1-690)
T1 construct: UniProt ID is given as 095436 [sic]; also called hNaPi2b; Hu NaPi2b
T1 sequence: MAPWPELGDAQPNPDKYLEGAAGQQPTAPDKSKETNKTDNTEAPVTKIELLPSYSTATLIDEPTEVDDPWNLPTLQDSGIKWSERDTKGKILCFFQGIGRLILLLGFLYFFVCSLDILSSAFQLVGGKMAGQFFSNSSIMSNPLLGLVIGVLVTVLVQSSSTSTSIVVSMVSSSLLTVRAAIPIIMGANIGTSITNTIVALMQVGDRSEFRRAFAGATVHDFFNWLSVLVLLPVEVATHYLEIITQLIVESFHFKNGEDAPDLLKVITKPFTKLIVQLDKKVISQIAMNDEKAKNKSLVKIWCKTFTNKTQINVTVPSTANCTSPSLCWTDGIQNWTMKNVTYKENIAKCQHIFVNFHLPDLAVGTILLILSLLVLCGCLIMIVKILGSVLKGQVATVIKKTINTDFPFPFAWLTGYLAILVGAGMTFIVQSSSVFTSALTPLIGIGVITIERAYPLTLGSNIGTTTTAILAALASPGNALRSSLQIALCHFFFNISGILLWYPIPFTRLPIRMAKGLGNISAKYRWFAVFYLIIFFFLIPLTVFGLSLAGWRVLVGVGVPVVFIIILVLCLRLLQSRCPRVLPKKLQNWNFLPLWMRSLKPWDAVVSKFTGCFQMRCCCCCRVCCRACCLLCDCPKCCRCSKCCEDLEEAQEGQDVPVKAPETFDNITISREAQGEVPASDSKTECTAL

T2: Construct 6 (human NaPi2b del 317-333) (human, UniProt O95436 1-690)
T2 construct: also called CL_#29919
T2 sequence: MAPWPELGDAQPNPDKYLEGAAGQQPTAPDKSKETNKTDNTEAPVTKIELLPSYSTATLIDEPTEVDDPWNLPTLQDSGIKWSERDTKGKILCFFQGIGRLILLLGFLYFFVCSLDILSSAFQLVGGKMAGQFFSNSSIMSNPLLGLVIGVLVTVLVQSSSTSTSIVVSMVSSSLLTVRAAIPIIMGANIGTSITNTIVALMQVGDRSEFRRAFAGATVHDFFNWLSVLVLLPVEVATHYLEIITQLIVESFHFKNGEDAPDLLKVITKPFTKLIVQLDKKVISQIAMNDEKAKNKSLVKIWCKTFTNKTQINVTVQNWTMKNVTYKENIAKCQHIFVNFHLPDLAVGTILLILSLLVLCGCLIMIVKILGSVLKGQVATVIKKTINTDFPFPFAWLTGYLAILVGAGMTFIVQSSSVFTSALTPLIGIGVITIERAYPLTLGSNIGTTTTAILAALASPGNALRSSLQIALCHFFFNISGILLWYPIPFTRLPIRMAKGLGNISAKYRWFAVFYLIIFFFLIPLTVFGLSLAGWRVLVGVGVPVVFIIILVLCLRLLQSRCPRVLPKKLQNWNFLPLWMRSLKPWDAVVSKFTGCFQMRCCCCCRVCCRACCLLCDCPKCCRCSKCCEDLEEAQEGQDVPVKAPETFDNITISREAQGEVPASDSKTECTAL

T3: Construct 7 (human NaPi2b del 317-326) (human, UniProt O95436 1-690)
T3 construct: also called CL_#29921
T3 sequence: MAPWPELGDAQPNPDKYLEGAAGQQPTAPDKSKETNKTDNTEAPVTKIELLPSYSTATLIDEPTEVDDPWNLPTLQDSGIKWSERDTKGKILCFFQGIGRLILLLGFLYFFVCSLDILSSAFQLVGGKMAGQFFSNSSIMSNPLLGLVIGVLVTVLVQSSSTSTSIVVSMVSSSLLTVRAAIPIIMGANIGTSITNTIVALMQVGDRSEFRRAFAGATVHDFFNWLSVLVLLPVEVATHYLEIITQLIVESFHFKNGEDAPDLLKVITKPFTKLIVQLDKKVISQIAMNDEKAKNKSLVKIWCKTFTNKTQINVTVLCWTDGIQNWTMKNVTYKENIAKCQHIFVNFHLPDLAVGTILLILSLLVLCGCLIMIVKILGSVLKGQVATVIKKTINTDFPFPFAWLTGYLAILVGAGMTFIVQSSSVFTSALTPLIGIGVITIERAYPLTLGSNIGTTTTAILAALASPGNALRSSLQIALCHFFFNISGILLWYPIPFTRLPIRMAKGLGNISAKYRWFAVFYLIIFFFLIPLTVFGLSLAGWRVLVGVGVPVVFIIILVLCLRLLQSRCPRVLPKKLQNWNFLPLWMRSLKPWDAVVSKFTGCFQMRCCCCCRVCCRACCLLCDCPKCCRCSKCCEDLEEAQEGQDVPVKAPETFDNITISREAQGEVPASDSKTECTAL

T4: Full length human NaPi2b (sodium-dependent phosphate transporter 2B, SLC34A2) (human, UniProt O95436 1-690)
T4 construct: also called huNaPi2b; CL_#13432
T4 sequence: T1 sequence

B1: v18992 (MX35), reference anti-NaPi2b antibody (antibody, human IgG1, kappa)
heavy 1: GQVQLVQSGAEVVKPGASVKMSCKASGYTFTGYNIHWVKQAPGQGLEWIGAIYPGNGDTSYKQKFRGRATLTADTSTSTVYMELSSLRSEDSAVYYCARGETARATFAYWGQGTLVTVSSASTKGPSVFPLAPSSKSTSGGTAALGCLVKDYFPEPVTVSWNSGALTSGVHTFPAVLQSSGLYSLSSVVTVPSSSLGTQTYICNVNHKPSNTKVDKKVEPKSCDKTHTCPPCPAPELLGGPSVFLFPPKPKDTLMISRTPEVTCVVVDVSHEDPEVKFNWYVDGVEVHNAKTKPREEQYNSTYRVVSVLTVLHQDWLNGKEYKCKVSNKALPAPIEKTISKAKGQPREPQVYVYPPSRDELTKNQVSLTCLVKGFYPSDIAVEWESNGQPENNYKTTPPVLDSDGSFALVSKLTVDKSRWQQGNVFSCSVMHEALHNHYTQKSLSLSPG
heavy 2: not shown
light: GDIQMTQSPSSLSASVGDRVTITCSASQDIGNFLNWYQQKPGKTVKVLIYYTSSLYSGVPSRFSGSGSGTDYTLTISSLQPEDFATYYCQQYSKLPLTFGQGTKLELKRTVAAPSVFIFPPSDEQLKSGTASVVCLLNNFYPREAKVQWKVDNALQSGNSQESVTEQDSKDSTYSLSSTLTLSKADYEKHKVYACEVTHQGLSSPVTKSFNRGEC
B2: MX35 (v18992), reference anti-NaPi2b antibody (antibody, human IgG1, kappa)
heavy 1: B1 heavy 1
heavy 2: not shown
light: B1 light
B3: v38591 (humanized anti-NaPi2b antibody, wild-type Fc) (antibody, human IgG1, kappa)
heavy: not shown
light: DVQMTQSPSSLSASVGDRVTITCRASQDVYSYLNWYQQKPGKAVKLLIYYTSRLQSGVPSRFSGSGSGTDYTLTISSLQPEDFATYYCQQYNIFPWTFGQGTKLEIKRTVAAPSVFIFPPSDEQLKSGTASVVCLLNNFYPREAKVQWKVDNALQSGNSQESVTEQDSKDSTYSLSSTLTLSKADYEKHKVYACEVTHQGLSSPVTKSFNRGEC
notes: also called v38591 Wild-type; H1L2
B4: v38591 (humanized anti-NaPi2b antibody, H1L2, wild-type Fc, heavy chains with C-terminal lysine) (antibody, human IgG1, kappa)
heavy: not shown
light: B3 light
notes: Full-size human IgG1/kappa antibody; also called v38591 (wild-type Fc)
B5: v18993 (lifastuzumab), reference anti-NaPi2b antibody (antibody, human IgG1, kappa)
heavy 1: GEVQLVESGGGLVQPGGSLRLSCAASGFSFSDFAMSWVRQAPGKGLEWVATIGRVAFHTYYPDSMKGRFTISRDNSKNTLYLQMNSLRAEDTAVYYCARHRGFDVGHFDFWGQGTLVTVSSASTKGPSVFPLAPSSKSTSGGTAALGCLVKDYFPEPVTVSWNSGALTSGVHTFPAVLQSSGLYSLSSVVTVPSSSLGTQTYICNVNHKPSNTKVDKKVEPKSCDKTHTCPPCPAPELLGGPSVFLFPPKPKDTLMISRTPEVTCVVVDVSHEDPEVKFNWYVDGVEVHNAKTKPREEQYNSTYRVVSVLTVLHQDWLNGKEYKCKVSNKALPAPIEKTISKAKGQPREPQVYVYPPSRDELTKNQVSLTCLVKGFYPSDIAVEWESNGQPENNYKTTPPVLDSDGSFALVSKLTVDKSRWQQGNVFSCSVMHEALHNHYTQKSLSLSPG
heavy 2: not shown
light: GDIQMTQSPSSLSASVGDRVTITCRSSETLVHSSGNTYLEWYQQKPGKAPKLLIYRVSNRFSGVPSRFSGSGSGTDFTLTISSLQPEDFATYYCFQGSFNPLTFGQGTKVEIKRTVAAPSVFIFPPSDEQLKSGTASVVCLLNNFYPREAKVQWKVDNALQSGNSQESVTEQDSKDSTYSLSSTLTLSKADYEKHKVYACEVTHQGLSSPVTKSFNRGEC

Assays:
[1] = target: T1, human sodium-dependent phosphate …; assay: flow cytometry on IGROV-1 cells (endogenous NaPi2b), 24 h at 4 C, anti-human IgG Fc AF647
[2] = target: T5, Construct 5 (chimeric human NaPi2b, swap in NaPi2a in 304-348) (human); assay: flow cytometry, transfected HEK293-6e cells, antibody 2 nM;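 further: transfected cells exposed to test antibody 24 h at 4 °C to block internalization, at least 1,000 events per well, background is mean MFI of unstained cells lacking primary antibody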
T5 construct: also called CL_#13436

[3] = target: T2, Construct 6 (human NaPi2b del 317-333); assay: as above
[4] = target: T3, Construct 7 (human NaPi2b del 317-326); assay: as above
[5] = target: T4, Full length human NaPi2b …; assay: as above
[6] = target: T6, Construct 1 (chimeric human NaPi2b, swap in NaPi2c in 239-259) (human); assay: as above
T6 construct: also called CL_#29914

[7] = target: T7, Construct 2 (chimeric human NaPi2b, swap in NaPi2c in 280-301) (human); assay: as above
T7 construct: also called CL_#29915

[8] = target: T8, Construct 3 (chimeric human NaPi2b, swap in NaPi2c in 304-321) (human); assay: as above
T8 construct: also called CL_#29916

[9] = target: T9, Construct 4 (chimeric human NaPi2b, swap in NaPi2c in 341-358) (human); assay: as above
T9 construct: also called CL_#13435

Binder | EC50 (read off the curve) [1] [nM] | Background-Subtracted AF647 Mean Fluorescence Intensity [2] [MFI] | Background-Subtracted AF647 Mean Fluorescence Intensity [3] [MFI] | Background-Subtracted AF647 Mean Fluorescence Intensity [4] [MFI] | Background-Subtracted AF647 Mean Fluorescence Intensity [5] [MFI] | Background-Subtracted AF647 Mean Fluorescence Intensity [6] [MFI] | Background-Subtracted AF647 Mean Fluorescence Intensity [7] [MFI] | Background-Subtracted AF647 Mean Fluorescence Intensity [8] [MFI] | Background-Subtracted AF647 Mean Fluorescence Intensity [9] [MFI]
B1 | ~2 | – | – | – | – | – | – | – | –
B2 | – | 16 | -59 | 76 | 870 | 1890 | 660 | 594 | 611
B3 | ~2 | – | – | – | – | – | – | – | –
B4 | – | -12 | -38 | 677 | 948 | 1550 | 832 | 743 | 725
B5 | ~3 | – | – | – | – | – | – | – | –
